The values that follow come from patent US20240018189A1 (PROTAGONIST THERAPEUTICS, published 2024).

Starred links: 1 amine or outer side, 2 acyl side, 3 side chain; linkers in the order of their positions; H or OH if unused. Positions of bridges follow the written chain, without caps; N, C: chain ends. Non-standard residues stand in square brackets, D forms with d. Groups on a side chain read outwards from the residue. Chains are numbered I, II in the order given. No end group written: not given here. *: point of attachment. PEG12 = NCCOCCOCCOCCOCCOCCOCCOCCOCCOCCOCCOCCOCCC(=O)O; Phe(4-tBu) = CC(C)(C)c1ccc(C[C@H](N)C(=O)O)cc1; Pro(4Amino) = proline with a 4-amino group; Dip = N[C@H](C(=O)O)C(c1ccccc1)c1ccccc1; γGlu = O=C(O)[C@H](CCC(=O)[*:2])N[*:1]; Arg(Dimethyl) = dimethyl-arginine; Palmitoyl = CCCCCCCCCCCCCCCC(=O)*; 2Pal = N[C@@H](Cc1ccccn1)C(=O)O; β3hF = N[C@H](CC(=O)O)Cc1ccccc1; Cit = NC(=O)NCCC[C@H](N)C(=O)O; NMeL = CN[C@@H](CC(C)C)C(=O)O; Isovaleryl = CC(C)CC(=O)*; Npc = nipecotic acid; Ahx = NCCCCCC(=O)O; βAla = NCCC(=O)O; Sar = CNCC(=O)O

T1: human ferroportin (SLC40A1) fused in frame with GFP (human) (UniProt Q9NP59)
T1 sequence (looked up): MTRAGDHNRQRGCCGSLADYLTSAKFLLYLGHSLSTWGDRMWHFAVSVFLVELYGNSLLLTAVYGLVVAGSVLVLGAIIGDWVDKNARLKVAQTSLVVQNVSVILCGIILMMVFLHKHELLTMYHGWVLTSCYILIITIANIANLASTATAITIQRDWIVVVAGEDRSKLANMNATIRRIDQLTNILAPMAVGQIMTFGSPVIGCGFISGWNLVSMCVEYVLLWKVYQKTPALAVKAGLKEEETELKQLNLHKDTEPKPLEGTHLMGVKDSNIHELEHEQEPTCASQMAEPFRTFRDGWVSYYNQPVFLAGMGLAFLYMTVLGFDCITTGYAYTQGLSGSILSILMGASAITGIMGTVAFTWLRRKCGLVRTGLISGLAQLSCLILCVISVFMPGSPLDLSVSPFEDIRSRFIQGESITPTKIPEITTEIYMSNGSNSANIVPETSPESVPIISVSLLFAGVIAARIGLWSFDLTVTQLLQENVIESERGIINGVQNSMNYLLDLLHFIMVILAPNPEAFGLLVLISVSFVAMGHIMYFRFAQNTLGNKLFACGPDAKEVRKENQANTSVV

B1: Compd. ID 38 (peptide)
peptide: DTHXPCIKXKKC
modifications: N-term isovaleric acid; 4 Dpa; 8 (D)Lys; 9 bhPhe; 10 Lys(Lys[Peg11_Palm]2); 11 (D)Lys; C-term NH2
B2: Compd. ID 203 (peptide)
peptide: DTHFPCIKXKKC
modifications: not fully specified; N-term isovaleric acid; 4 MePhe; 8 (D)Lys; 9 bhPhe; 10 Lys(Ahx_Palm); 11 (D)Lys; C-term NH2
B3: Compd. ID 39 (peptide)
peptide: DTHXPCIKXKKC
modifications: N-term isovaleric acid; 4 Dpa; 8 (D)Lys; 9 bhPhe; 10 Lys(Ahx_Ahx_Palm); 11 (D)Lys; C-term NH2
B4: Seq. No. 317 (peptide)
peptide 1: Isovaleryl-DTHFPCIK([γGlu-Palmitoyl])FEPR
peptide 2: SKGCK-NH2
modifications: disulfide I:6-II:4
B5: Compd. ID 253 (peptide)
peptide: DTHXPCIKXKKC
modifications: N-term isovaleric acid; 4 Dpa; 8 (D)Lys(PEG12_OMe); 9 bhPhe; 10 Lys(1PEG2_1PEG2_IsoGlu_C18_Diacid); 11 (D)Lys(PEG12_OMe); C-term NH2
B6: Compd. ID 5 (peptide)
peptide: DTHXPCIKXKC
modifications: N-term isovaleric acid; 4 Dpa; 8 Lys[Ahx-isoGlu-Palm]; 9 bhPhe; 10 (D)Lys; C-term NH2
B7: Compd. ID 6 (peptide)
peptide: DTHXPCIKXKC
modifications: N-term isovaleric acid; 4 Dpa; 8 Lys[isoGlu-Palm]; 9 bhPhe; 10 (D)Lys; C-term NH2
B8: Compd. ID 45 (peptide)
peptide: DTHXPCIKXKKC
modifications: N-term isovaleric acid; 4 Dpa; 8 (D)Lys; 9 bhPhe; 10 Lys(2Peg11′_KKKGS_Palm); 11 (D)Lys; C-term NH2
B9: Compd. ID 8 (peptide)
peptide: DTHXPCIKXKC
modifications: N-term isovaleric acid; 4 Dpa; 8 Lys[Ahx-Behenic_Acid]; 9 bhPhe; 10 (D)Lys; C-term NH2
B10: Compd. ID 42 (peptide)
peptide: DTHXPCIKXKKC
modifications: N-term isovaleric acid; 4 Dpa; 8 (D)Lys; 9 bhPhe; 10 Lys(1Peg2_1Peg2_IsoGlu_C18_Diacid); 11 (D)Lys; C-term NH2
B11: Compd. ID 41 (peptide)
peptide: DTHXPCIKXKKC
modifications: N-term isovaleric acid; 4 Dpa; 8 (D)Lys; 9 bhPhe; 10 Lys(2Peg11′_Peg11_Palm); 11 (D)Lys; C-term NH2
B12: Compd. ID 44 (peptide)
peptide: DTHXPCIKXKKC
modifications: N-term isovaleric acid; 4 Dpa; 8 (D)Lys; 9 bhPhe; 10 Lys(2Peg11′_KKK_Palm); 11 (D)Lys; C-term NH2
B13: Compd. ID 37 (peptide)
peptide: DTHXPCIKXKKC
modifications: N-term isovaleric acid; 4 Dpa; 8 (D)Lys; 9 bhPhe; 10 Lys(2Peg11′_Ahx_Palm); 11 (D)Lys; C-term NH2
B14: Compd. ID 33 (peptide)
peptide: DTHXPCIKXKPRSKC
modifications: N-term isovaleric acid; 4 Dpa; 8 (D)Lys; 9 bhPhe; 10 Lys(2Peg11′_Palm); C-term NH2
B15: Compd. ID 36 (peptide)
peptide: DTHXPCIKXKKC
modifications: N-term isovaleric acid; 4 Dpa; 8 (D)Lys; 9 bhPhe; 10 Lys(2Peg11′_Sarc_Palm); 11 (D)Lys; C-term NH2
B16: Compd. ID 40 (peptide)
peptide: DTHXPCIKXKKC
modifications: N-term isovaleric acid; 4 Dpa; 8 (D)Lys; 9 bhPhe; 10 Lys(Ahx_Ahx_Ahx_Palm); 11 (D)Lys; C-term NH2
B17: Compd. ID 43 (peptide)
peptide: DTHXPCIKXKKC
modifications: N-term isovaleric acid; 4 Dpa; 8 (D)Lys; 9 bhPhe; 10 Lys(1Peg2_1Peg2_Ahx_C18_Diacid); 11 (D)Lys; C-term NH2

For this experiment, the target named is T1, human ferroportin (SLC40A1) fused in frame with GFP (human). Nature of the experiment: cell-based or functional assay.
The molecule Isovaleryl-DTH[Dip]PCIK([Ahx-Palmitoyl])[2Pal]C-NH2 (disulfide 6-10 (inferred)) [Seq. No. 320] gave an IC50: FPN internalisation of 9.72 nM.
With B1, the FPN EC50 was 33 nM.
B2 came in with an FPN EC50 of 28 nM.
Turning to B3, the FPN EC50 was 19.3 nM.
As for B4, the IC50: FPN internalisation came to 13.7 nM.
For B5, the FPN EC50 was above 3000 nM.
In the case of DTHXPCIKXKC (N-term isovaleric acid; 4 Dpa; 8 (D)Lys(Ac); 9 bhPhe; 10 Lys(Ac); C-term NH2) [Seq. No. 325], the IC50: FPN internalisation came to 37.8 nM.
Molecule B6 had an FPN EC50 of 0.75 nM.
Molecule Isovaleryl-DTH[Dip]PCI[β3hF]K([Ahx-Palmitoyl])[dK]C-NH2 (disulfide 6-11 (inferred)) [Compd. ID 206] came in with an FPN EC50 of 10.8 nM.
Isovaleryl-DTHFPCI[dK]FK([PEG12-Palmitoyl])CK-NH2 (disulfide 6-11 (inferred)) [Seq. No. 334] registered an IC50: FPN internalisation of 32 nM.
As to B7, the FPN EC50 was found to be 6.16 nM.
As to Isovaleryl-DTHFPCIK(Ac)FK([PEG12-Palmitoyl])PK(Ac)SK(Ac)[Sar]CK-NH2 (disulfide 6-16 (inferred)) [Compd. ID 214], the FPN EC50 amounted to 7.19 nM.
Molecule DTHXPCIKXKRC (N-term isovaleric acid; 4 Dpa; 8 (D)Lys; 9 bhPhe; 10 Lys(Ahx-Palm); C-term NH2) [Compd. ID 2] showed an FPN EC50 of 11.8 nM.
The same measure, in the same setting: in the case of DTHFPCIKXKKC (N-term isovaleric acid; 8 (D)Lys; 9 bhPhe; 10 Lys(Palm); C-term NH2) [Compd. ID 205] it was 4.23 nM.
Isovaleryl-DTH[Dip]PCI[Cit][β3hF]K([Ahx-Palmitoyl])[dK]C-NH2 (disulfide 6-12 (inferred)) [Compd. ID 30] gave an FPN EC50 of 26.6 nM.
Turning to Isovaleryl-DTHFPCIK([γGlu-Palmitoyl])FEPR [Compd. ID 219], the FPN EC50 came to 12.6 nM.
Molecule Isovaleryl-DTH[Dip]PC[NMeL][dK][β3hF]K([Ahx-Palmitoyl])[dK]C-NH2 (disulfide 6-12 (inferred); not fully specified) [Compd. ID 201] had an FPN EC50 of 12.5 nM.
Molecule DTHXPCIKXKKC (N-term isovaleric acid; 4 Dpa; 8 (D)Lys; 9 bhPhe; 11 (D)Lys; C-term NH2) [Seq. No. 327] returned an IC50: FPN internalisation of 142 nM.
In turn, B8 had an FPN EC50 of 24.5 nM.
B9 showed an FPN EC50 of 550 nM.
B10 yielded an FPN EC50 of 1700 nM.
In turn, B11 showed an FPN EC50 of 18.5 nM.
The molecule Isovaleryl-DTHFPC[NMeL]K([γGlu-Palmitoyl])FEPRSKGCK-NH2 (disulfide 6-16 (inferred)) [Compd. ID 244] registered an FPN EC50 of 9.59 nM.
The molecule B12 returned an FPN EC50 of 37.9 nM.
Regarding Isovaleryl-DTH[Dip]PCI[dK][β3hF]K([PEG12-Palmitoyl])PRSK[Sarc]C-NH2 (disulfide 6-16 (inferred)) [Compd. ID 34], the FPN EC50 stood at 23.6 nM.
With Isovaleryl-DTH[Dip]PCI[dA][β3hF]K([PEG12-Palmitoyl])[dK]C-NH2 (disulfide 6-12 (inferred)) [Seq. No. 332], the IC50: FPN internalisation is 11 nM.
Turning to B13, the FPN EC50 is 19.6 nM.
Molecule Isovaleryl-DTH[Dip]PCI[βAla][β3hF]K([PEG12-Palmitoyl])[dK]C-NH2 (disulfide 6-12 (inferred)) [Seq. No. 333] gave an IC50: FPN internalisation of 7.16 nM.
For Isovaleryl-DTH[Dip]PCI[Pro(4Amino)][β3hF]K([Ahx-Palmitoyl])[dK]C-NH2 (disulfide 6-12 (inferred)) [Compd. ID 31], the FPN EC50 was found to be 18 nM.
Regarding B14, the FPN EC50 was found to be 25.4 nM.
For Isovaleryl-DTH[Dip]PCI[β3hF]K([PEG12-Palmitoyl])[dK]C-NH2 (disulfide 6-11 (inferred)) [Seq. No. 330], the IC50: FPN internalisation was 6.93 nM.
For Isovaleryl-DTH[Dip]PCI[βAla][β3hF][dK]C-NH2 (disulfide 6-11 (inferred)) [Seq. No. 323], the IC50: FPN internalisation was 10.6 nM.
Isovaleryl-DTHFPCIK([γGlu-Palmitoyl])FEPRSKGC (disulfide 6-16 (inferred)) [Compd. ID 218] registered an FPN EC50 of 15.6 nM.
In turn, B15 displayed an FPN EC50 of 10.9 nM.
DTHXPCIKXKC (N-term isovaleric acid; 4 Dpa; 8 Lys(Ahx_Palm); 9 2Pal; 10 (D)Lys; C-term NH2) [Seq. No. 321] registered an IC50: FPN internalisation of 21.7 nM.
Isovaleryl-DTH[Dip]PCI[dK][β3hF]K([PEG12-Palmitoyl])P[dK]S[dK][Sarc]C[dK]-NH2 (disulfide 6-16 (inferred)) [Compd. ID 35] displayed an FPN EC50 of 23.1 nM.
For Isovaleryl-DTH[Dip][Npc]CI[dK][β3hF]K([Ahx-Palmitoyl])[dK]C-NH2 (disulfide 6-12 (inferred)) [Compd. ID 4], the FPN EC50 came to 6.35 nM.
The molecule Isovaleryl-DTH[Dip]PCI[Arg(Dimethyl)][β3hF]K([Ahx-Palmitoyl])[dK]C-NH2 (disulfide 6-12 (inferred)) [Compd. ID 29] came in with an FPN EC50 of 10.6 nM.
On to B16, for which the FPN EC50 was found to be 18.5 nM.
The molecule Isovaleryl-DTH[Dip]PCI[β3hF][dK]C-NH2 (disulfide 6-10 (inferred)) [Seq. No. 324] yielded an IC50: FPN internalisation of 23.3 nM.
Isovaleryl-DTH[Dip]PCI[Arg(Nitro)][β3hF]K([Ahx-Palmitoyl])[dK]C-NH2 (disulfide 6-12 (inferred)) [Compd. ID 28] had an FPN EC50 of 27.1 nM.
Regarding Isovaleryl-DTHFPCLK([γGlu-Palmitoyl])FEPRSKGCK-NH2 (disulfide 6-16 (inferred)) [Compd. ID 216], the FPN EC50 is 16.6 nM.
Consider DTHXPCIKXKC (N-term isovaleric acid; 4 Dpa; 8 (D)Lys; 9 bhPhe; 10 Lys(Ac); C-term NH2) [Seq. No. 326], for which the IC50: FPN internalisation turned out to be 95.7 nM.
The molecule B17 came in with an FPN EC50 of 283 nM.
The molecule Isovaleryl-DTH[Dip][Npc]CI[dK][Phe(4-tBu)][dK]CK([PEG12-Palmitoyl])-NH2 (disulfide 6-11 (inferred)) [Seq. No. 328] came in with an IC50: FPN internalisation of 16.5 nM.
On the same count and under the same terms, in the case of Isovaleryl-DTH[Dip]PCII[β3hF]K([PEG12-Palmitoyl])[dK]C-NH2 (disulfide 6-12 (inferred)) [Seq. No. 331] it was 24 nM.
